Test results from patent US20240075137A1.

Key:
[1] = molecular target: mouse PVRIG on cells (mouse); assay: FACS, NK cells, 10 ug/ml vs isotype
[2] = molecular target: mouse PVRIG on cells (mouse); assay: FACS titration, D10.G4.1 cells
[3] = molecular target: mouse PVRIG-Fc fusion protein (mouse); assay: blocking of mPVRIG-Fc (029-Fc) binding to mPVRL2 over-expressing cells
[4] = molecular target: mouse PVRIG on cells (mouse); assay: FACS titration, HEK293 mPVRIG over-expressing cells
[5] = molecular target: mouse PVRIG on cells (mouse); assay: FACS, HEK293 mPVRIG over-expressing vs empty vector cells, 10 ug/ml
[6] = molecular target: mouse PVRIG on cells (mouse); assay: FACS, D10.G4.1 cells vs isotype

B1: AB-407 (antibody, V domains shown)
VH: QVQLQQSGAELAKPGSSVMISCKASGYTFTNYAVHWIKQTTGQALEWTGYIAPGSGVTKYNEKFKGKATLTVDKSSTTAYMQLSSLTPVDTAVYYCASGTTRFAYWGQGTLVTVSS
VL: DIVLTQSPALAVSLGQRATISCRASQSVSLSSYNLMQWYQQKPGQEPKILIYDASNLPSGIPARFSGSGSGTDFTLTIDPVQADDIATYYCQQSKDDPLTFGSGTKLEIK
Q: For B1, which MFIr on NK cells (Ab/Iso) [1] is on record?
A: 2.8

Q: And the Kd [2]?
A: 1.32 nM

Q: What about the % R-L blocking [3] of the same binder?
A: 95%

Q: What about the IC50 [3] of the same binder?
A: 3.99 nM

Q: What about the Kd [4] of the same binder?
A: 0.334 nM

Q: What about the MFIr (HEK OX/EV) [5] of the same binder?
A: 50

Q: What about the MFIr on D10.G4.1 (Ab/Iso) [6] of the same binder?
A: 8
